Data on 2 substances can be found in EP4786492A1.

The target of assay [1] is human DLL1 protein (human) (UniProt O00548). Put plainly: ELISA, maximum over 0.1-100 nM.
Assay [2] addresses human DLL4 protein (human) (UniProt Q9NR61). Nature of the assay: ELISA, maximum over 0.1-100 nM. In general terms: An ELISA detects its analyte on a solid surface through an enzyme-linked reagent.
For assay [3], the target named is human DLL3 endogenously expressed on SHP77 and NCI-H82 cells (human) (UniProt Q9NYJ7). Put plainly: FACS SHP77 cells, 20 nM.
The target in assay [4] is monkey DLL3 on CHO K1-cyno DLL3 cells (cynomolgus monkey DLL3 extracellular segment joined to EpCAM transmembrane and intracellular regions) (cynomolgus monkey). Put plainly: FACS, CHO K1-cyno DLL3 cells, 100 nM antibody. A general note: In flow cytometry, cells or beads pass a laser one at a time.
Assay [5] has the same target. Nature of the assay: FACS, CHO K1-cyno DLL3 cells, 0.032 nM antibody.
Assay [6] deals with human DLL3 endogenously expressed on SHP77 and NCI-H82 cells (human) (UniProt Q9NYJ7). Put plainly: FACS SHP77 cells, 0.00128 nM.
For assay [7] the target is unchanged. Nature of the assay: FACS SHP77 cells, 4 nM.
Assay [8] shares this target. Put plainly: FACS SHP77 cells, 0.16 nM.
Assay [9] shares this target. Nature of the assay: FACS SHP77 cells, 0.0064 nM.
Assay [10] deals with monkey DLL3 on CHO K1-cyno DLL3 cells (cynomolgus monkey DLL3 extracellular segment joined to EpCAM transmembrane and intracellular regions) (cynomolgus monkey). Put plainly: FACS, CHO K1-cyno DLL3 cells, 4 nM antibody.
Assay [11] concerns the target human DLL3 endogenously expressed on SHP77 and NCI-H82 cells (human) (UniProt Q9NYJ7). Put plainly: FACS SHP77 cells, 100 nM.
The target of assay [12] is monkey DLL3 on CHO K1-cyno DLL3 cells (cynomolgus monkey DLL3 extracellular segment joined to EpCAM transmembrane and intracellular regions) (cynomolgus monkey). Nature of the assay: FACS, CHO K1-cyno DLL3 cells, 20 nM antibody.
Assay [13] shares this target. Put plainly: FACS, CHO K1-cyno DLL3 cells, 0.00128 nM antibody.
For assay [14] the target is unchanged. Nature of the assay: FACS, CHO K1-cyno DLL3 cells, 0.8 nM antibody.
The target is the same in assay [15]. Nature of the assay: FACS, CHO K1-cyno DLL3 cells, 0.0064 nM antibody.
Assay [16] has as its target human DLL3 endogenously expressed on SHP77 and NCI-H82 cells (human) (UniProt Q9NYJ7). Nature of the assay: FACS SHP77 cells, 0.8 nM.
Assay [17] has as its target monkey DLL3 on CHO K1-cyno DLL3 cells (cynomolgus monkey DLL3 extracellular segment joined to EpCAM transmembrane and intracellular regions) (cynomolgus monkey). Nature of the assay: FACS, CHO K1-cyno DLL3 cells, 0.16 nM antibody.
For assay [18], the target named is human DLL3 endogenously expressed on SHP77 and NCI-H82 cells (human) (UniProt Q9NYJ7). Put plainly: FACS SHP77 cells, 0.032 nM.

“And” between values parts separate entries of the source, which are not always exact repeats. Identical values can stand only once.

human DLL4 protein (human), sequence (Q9NR61 27-524 limits assumed): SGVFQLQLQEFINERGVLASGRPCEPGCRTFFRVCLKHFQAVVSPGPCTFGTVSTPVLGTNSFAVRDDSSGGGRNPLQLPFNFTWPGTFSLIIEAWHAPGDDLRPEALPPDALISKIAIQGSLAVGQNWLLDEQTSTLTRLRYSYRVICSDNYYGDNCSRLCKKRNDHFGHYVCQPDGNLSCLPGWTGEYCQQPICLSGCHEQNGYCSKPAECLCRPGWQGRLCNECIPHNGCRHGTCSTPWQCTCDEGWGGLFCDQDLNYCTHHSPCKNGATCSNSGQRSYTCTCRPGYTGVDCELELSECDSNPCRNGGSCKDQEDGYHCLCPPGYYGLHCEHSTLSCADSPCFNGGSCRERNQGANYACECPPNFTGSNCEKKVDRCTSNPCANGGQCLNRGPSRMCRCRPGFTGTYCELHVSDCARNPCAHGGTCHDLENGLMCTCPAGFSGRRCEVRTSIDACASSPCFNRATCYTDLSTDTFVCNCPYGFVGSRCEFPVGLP
human DLL1 protein (human), sequence (O00548 18-540 limits assumed): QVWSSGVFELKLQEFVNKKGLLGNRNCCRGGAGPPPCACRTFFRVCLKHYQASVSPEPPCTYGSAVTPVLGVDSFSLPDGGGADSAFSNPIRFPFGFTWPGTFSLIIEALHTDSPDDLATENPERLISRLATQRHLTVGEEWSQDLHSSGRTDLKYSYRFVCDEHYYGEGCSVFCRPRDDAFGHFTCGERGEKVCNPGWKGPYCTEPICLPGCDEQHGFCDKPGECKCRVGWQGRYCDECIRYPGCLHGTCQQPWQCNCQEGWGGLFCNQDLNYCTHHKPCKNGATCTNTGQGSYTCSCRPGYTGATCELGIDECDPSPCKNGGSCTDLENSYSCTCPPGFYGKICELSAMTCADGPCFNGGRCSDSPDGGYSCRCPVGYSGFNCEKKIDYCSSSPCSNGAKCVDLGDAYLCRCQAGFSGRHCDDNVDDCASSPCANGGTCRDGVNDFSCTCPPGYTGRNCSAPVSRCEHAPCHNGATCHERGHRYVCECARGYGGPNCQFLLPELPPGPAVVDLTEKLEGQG
human DLL3 endogenously expressed on SHP77 and NCI-H82 cells (human), sequence (Q9NYJ7 27-618): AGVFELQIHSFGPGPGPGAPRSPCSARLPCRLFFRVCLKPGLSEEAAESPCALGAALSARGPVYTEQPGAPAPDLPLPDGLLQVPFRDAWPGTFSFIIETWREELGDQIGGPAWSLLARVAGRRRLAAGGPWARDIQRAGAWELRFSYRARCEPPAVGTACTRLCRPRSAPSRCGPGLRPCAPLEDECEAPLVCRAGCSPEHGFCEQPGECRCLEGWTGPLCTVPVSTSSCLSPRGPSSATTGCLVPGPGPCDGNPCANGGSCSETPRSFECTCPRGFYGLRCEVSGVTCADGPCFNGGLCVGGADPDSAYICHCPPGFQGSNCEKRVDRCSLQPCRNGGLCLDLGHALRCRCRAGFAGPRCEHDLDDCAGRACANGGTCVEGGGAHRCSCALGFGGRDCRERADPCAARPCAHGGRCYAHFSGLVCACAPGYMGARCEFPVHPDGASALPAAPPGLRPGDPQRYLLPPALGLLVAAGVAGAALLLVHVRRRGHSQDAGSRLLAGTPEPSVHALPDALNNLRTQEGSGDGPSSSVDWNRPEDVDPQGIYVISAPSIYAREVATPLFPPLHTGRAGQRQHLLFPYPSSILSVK
monkey DLL3 on CHO K1-cyno DLL3 cells (cynomolgus monkey DLL3 extracellular segment joined to EpCAM transmembrane and intracellular regions) (cynomolgus monkey), sequence (chain, as listed by the source limits assumed): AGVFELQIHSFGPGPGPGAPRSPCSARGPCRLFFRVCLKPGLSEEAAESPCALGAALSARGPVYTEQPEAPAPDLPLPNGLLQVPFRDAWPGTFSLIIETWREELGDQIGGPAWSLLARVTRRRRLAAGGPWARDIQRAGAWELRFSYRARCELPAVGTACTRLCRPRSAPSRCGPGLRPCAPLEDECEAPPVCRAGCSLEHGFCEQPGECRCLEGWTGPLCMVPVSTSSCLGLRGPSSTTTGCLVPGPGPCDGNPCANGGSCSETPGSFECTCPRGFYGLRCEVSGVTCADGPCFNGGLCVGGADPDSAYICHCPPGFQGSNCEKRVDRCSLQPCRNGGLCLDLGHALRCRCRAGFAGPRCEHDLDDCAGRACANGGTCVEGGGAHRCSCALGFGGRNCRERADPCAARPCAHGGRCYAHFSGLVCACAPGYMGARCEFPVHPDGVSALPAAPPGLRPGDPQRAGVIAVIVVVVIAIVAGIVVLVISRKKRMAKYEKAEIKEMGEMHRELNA

Consider hIgG1 (antibody), for which the Emax of OD450 nm binding value in assay [1] was 0.04 OD450 and 0.05 OD450 and 0.07 OD450; in assay [2], 0.04 OD450 and 0.07 OD450 and 0.05 OD450.
SC16.56 (antibody): the MFI in assay [3] was 500 MFI and 566 MFI; in assay [4], 4930 MFI and 2330 MFI; in assay [5] it was 690 MFI and 299 MFI; in assay [6], 188 MFI and 146 MFI; in assay [7] it was 476 MFI and 517 MFI; in assay [8], 432 MFI and 411 MFI. The MFI was 235 MFI and 146 MFI in assay [9]; 5040 MFI and 2330 MFI in assay [10]; 529 MFI and 628 MFI in assay [11]; 5010 MFI and 2630 MFI in assay [12]; 161 MFI and 185 MFI in [13]; 4510 MFI and 1900 MFI in assay [14]. Also, the MFI in assay [15] was 314 MFI and 189 MFI; in assay [16], 465 MFI and 478 MFI; in assay [17], 1970 MFI and 700 MFI; in assay [18], 334 MFI and 234 MFI. The Emax of OD450 nm binding value in assay [1] and in assay [2] was 0.05 OD450 each time.
